Experimental data: publication PMC2132664 (The Journal of Cell Biology, 1998)

B1: DEL K560–GFP (aa 341–370 of the neck coiled coil deleted) (domain or fragment, human, UniProt P33176 1-560, looked up)
chain: MADLAECNIKVMCRFRPLNESEVNRGDKYIAKFQGEDTVVIASKPYAFDRVFQSSTSQEQVYNDCAKKIVKDVLEGYNGTIFAYGQTSSGKTHTMEGKLHDPEGMGIIPRIVQDIFNYIYSMDENLEFHIKVSYFEIYLDKIRDLLDVSKTNLSVHEDKNRVPYVKGCTERFVCSPDEVMDTIDEGKSNRHVAVTNMNEHSSRSHSIFLINVKQENTQTEQKLSGKLYLVDLAGSEKVSKTGAEGAVLDEAKNINKSLSALGNVISALAEGSTYVPYRDSKMTRILQDSLGGNCRTTIVICCSPSSYNESETKSTLLFGQRAKTIKNTVCVNVELTAEQWGETVPIDEQFDKEKANLEAFTVDKDITLTNDKPATAIGVIGNFTDAERRKCEEEIAKLYKQLDDKDEEINQQSQLVEKLKTQMLDQEELLASTRRDQDNMQAELNRLQAENDASKEEVKEVLQALEELAVNYDQKSQEVEDKTKEYELLSDELNQKSATLASIDAELQKLKEMTNHQKKRAAEMMASLLK
B2: STABLE COIL K560–GFP (aa 343–370 replaced by four repeats of EIEALKA) (domain or fragment, human)
chain: MADLAECNIKVMCRFRPLNESEVNRGDKYIAKFQGEDTVVIASKPYAFDRVFQSSTSQEQVYNDCAKKIVKDVLEGYNGTIFAYGQTSSGKTHTMEGKLHDPEGMGIIPRIVQDIFNYIYSMDENLEFHIKVSYFEIYLDKIRDLLDVSKTNLSVHEDKNRVPYVKGCTERFVCSPDEVMDTIDEGKSNRHVAVTNMNEHSSRSHSIFLINVKQENTQTEQKLSGKLYLVDLAGSEKVSKTGAEGAVLDEAKNINKSLSALGNVISALAEGSTYVPYRDSKMTRILQDSLGGNCRTTIVICCSPSSYNESETKSTLLFGQRAKTIKNTVCVNVELTAEQWKKEIEALKAEIEALKAEIEALKAEIEALKAGETVPIDEQFDKEKANLEAFTVDKDITLTNDKPATAIGVIGNFTDAERRKCEEEIAKLYKQLDDKDEEINQQSQLVEKLKTQMLDQEELLASTRRDQDNMQAELNRLQAENDASKEEVKEVLQALEELAVNYDQKSQEVEDKTKEYELLSDELNQKSATLASIDAELQKLKEMTNHQKKRAAEMMASLLK

Target: the molecule itself
Experiment: single-spot fluorescence intensity

Protein	stoichiometry N
B1	2
B2	2
